Values quoted from earlier work, collected in patent US20110212858A1, “SYNTHETIC POLY D/L LYSINE FOR CONTROL OF DIRECTION AND RATE OF NEURITE GROWTH AND REGENERATION” (CHILDRENS HOSPITAL LOS ANGELES, priority 2008, published 2011).

Conditions: requires storage at −80° C.

laminin
shelf life: limited shelf life
